The values below come from publication PMC10784544, “Ferric reduction by a CYBDOM protein counteracts increased iron availability in root meristems induced by phosphorus deficiency” (Nature Communications, 2024).

Substrate in the series: O=C1O[C@H]([C@@H](O)CO)C(O)=C1O
In words: two-electrode voltage clamp in Xenopus oocytes, trans-plasma membrane current. Conditions: cytosolic electron donor, raised by injection; ferricyanide as extracellular electron acceptor. In kind it is cell-based, Arabidopsis thaliana. In general terms: In two-electrode clamp one electrode senses voltage and the other passes current.

B1: HYP1 (… TO LOW P1) (Arabidopsis thaliana) (protein)
chain: QSLCNTHRFTNNLAFADCSDLSALGSFLHWTYNEQNGTVSIAYRHPGTSASSWVAWGLNPSSTQMVGTQALVAFTNTTTNQFQAYTSSVSSYGTRLERSSLSFGVSGLSATLVSGEVTIFATLELSPNLITANQLWQVGPVVNGVPASHQTSGDNMRSSGRIDFRTGQASAGGGGSGDRLRKRNTHGVLNAVSWGVLMPMGAMMARYMKVFADPTWFYLHIAFQVSGYVIGVAGWATGIKLGNDSPGTSYSTHRNLGIALFTFATLQVFALLVRPKPDHKYRTYWNVYHHTVGYTTIILSIVNIFKGFDILDPEDKWRWAYIGILIFLGACVLILEPLTWFIVLRRKSRGGNTVAAPTSSKYSNGVNGTTTTGPHHQDA
notes: cDNA in pGEMHE, cRNA-injected Xenopus laevis oocytes
On to B1, for which the Km (usually the substrate concentration at which the rate is half of its maximum) came out at 4 mM.
